# In patent US20240132624A1 (Ablynx, published 2024):
# Residue numbers refer to the chain shown, from its start.
# B1: T0263018B11 A33H (VHH, name in Kabat numbering)
# VHH: EVQLVESGGGVVQPGGSLRLSCAASGFTFSSYHMYWVRQAPGKGLEWVSAISSGGGSTDYADSVKGRFTISRDNSKNTLYLQMNSLRPEDTALYYCAADTLYTSLTWYSYWGQGTLVTVSS
# notes: FLAG3-His6 tagged
# B2: T0263018B11 T57E (VHH, name in Kabat numbering)
# VHH: B1 VHH with H33A, T58E
# notes: FLAG3-His6 tagged
# B3: T0263018B11 Y32N (VHH, name in Kabat numbering)
# VHH: B1 VHH with Y32N, H33A
# notes: FLAG3-His6 tagged
# B4: T0263018B11 S100W (VHH, name in Kabat numbering)
# VHH: B1 VHH with H33A, S104W
# notes: FLAG3-His6 tagged
# B5: T0263018B11 T96G (VHH, name in Kabat numbering)
# VHH: B1 VHH with H33A, T100G
# notes: FLAG3-His6 tagged
# B6: T0263018B11 S56E (VHH, name in Kabat numbering)
# VHH: B1 VHH with H33A, S57E
# notes: FLAG3-His6 tagged
# B7: T0263018B11 G26L (VHH, name in Kabat numbering)
# VHH: B1 VHH with G26L, H33A
# notes: FLAG3-His6 tagged
# B8: T0263018B11 T57G (VHH, name in Kabat numbering)
# VHH: B1 VHH with H33A, T58G
# notes: FLAG3-His6 tagged
# B9: T0263018B11 F27I (VHH, name in Kabat numbering)
# VHH: B1 VHH with F27I, H33A
# notes: FLAG3-His6 tagged
# B10: T0263018B11 Y32M (VHH, name in Kabat numbering)
# VHH: B1 VHH with Y32M, H33A
# notes: FLAG3-His6 tagged
# B11: T0263018B11 F29P (VHH, name in Kabat numbering)
# VHH: B1 VHH with F29P, H33A
# notes: FLAG3-His6 tagged
# B12: T0263018B11 T57R (VHH, name in Kabat numbering)
# VHH: B1 VHH with H33A, T58R
# notes: FLAG3-His6 tagged
# B13: T0263018B11 T57M (VHH, name in Kabat numbering)
# VHH: B1 VHH with H33A, T58M
# notes: FLAG3-His6 tagged
# B14: T0263018B11 S30M (VHH, name in Kabat numbering)
# VHH: B1 VHH with S30M, H33A
# notes: FLAG3-His6 tagged
# B15: T0263018B11 A33P (VHH, name in Kabat numbering)
# VHH: B1 VHH with H33P
# notes: FLAG3-His6 tagged
# B16: T0263018B11 F29I (VHH, name in Kabat numbering)
# VHH: B1 VHH with F29I, H33A
# notes: FLAG3-His6 tagged
# B17: T0263018B11 D58A (VHH, name in Kabat numbering)
# VHH: B1 VHH with H33A, D59A
# notes: FLAG3-His6 tagged
# B18: T0263018B11 T28G (VHH, name in Kabat numbering)
# VHH: B1 VHH with T28G, H33A
# notes: FLAG3-His6 tagged
# B19: T0263018B11 S100A (VHH, name in Kabat numbering)
# VHH: B1 VHH with H33A, S104A
# notes: FLAG3-His6 tagged
# B20: T0263018B11 A93T (VHH, name in Kabat numbering)
# VHH: B1 VHH with H33A, A97T
# notes: FLAG3-His6 tagged
# B21: T0263018B11 T57D (VHH, name in Kabat numbering)
# VHH: B1 VHH with H33A, T58D
# notes: FLAG3-His6 tagged
# B22: T0263018B11 F29Q (VHH, name in Kabat numbering)
# VHH: B1 VHH with F29Q, H33A
# notes: FLAG3-His6 tagged
# B23: T0263018B11 T96W (VHH, name in Kabat numbering)
# VHH: B1 VHH with H33A, T100W
# notes: FLAG3-His6 tagged
# B24: T0263018B11 G26K (VHH, name in Kabat numbering)
# VHH: B1 VHH with G26K, H33A
# notes: FLAG3-His6 tagged
# B25: T0263018B11 G54D (VHH, name in Kabat numbering)
# VHH: B1 VHH with H33A, G55D
# notes: FLAG3-His6 tagged
# B26: T0263018B11 S31A (VHH, name in Kabat numbering)
# VHH: B1 VHH with S31A, H33A
# notes: FLAG3-His6 tagged
# B27: T0263018B11 S31V (VHH, name in Kabat numbering)
# VHH: B1 VHH with S31V, H33A
# notes: FLAG3-His6 tagged
# B28: T0263018B11 W100cE (VHH, name in Kabat numbering)
# VHH: B1 VHH with H33A, W107E
# notes: FLAG3-His6 tagged
# B29: T0263018B11 L100aV (VHH, name in Kabat numbering)
# VHH: B1 VHH with H33A, L105V
# notes: FLAG3-His6 tagged
# B30: T0263018B11 S30P (VHH, name in Kabat numbering)
# VHH: B1 VHH with S30P, H33A
# notes: FLAG3-His6 tagged
# B31: T0263018B11 S100L (VHH, name in Kabat numbering)
# VHH: B1 VHH with H33A, S104L
# notes: FLAG3-His6 tagged
# B32: T0263018B11 T57Q (VHH, name in Kabat numbering)
# VHH: B1 VHH with H33A, T58Q
# notes: FLAG3-His6 tagged
# B33: T0263018B11 T57H (VHH, name in Kabat numbering)
# VHH: B1 VHH with H33A, T58H
# notes: FLAG3-His6 tagged
# B34: T0263018B11 T57K (VHH, name in Kabat numbering)
# VHH: B1 VHH with H33A, T58K
# notes: FLAG3-His6 tagged
# B35: T0263018B11 T28M (VHH, name in Kabat numbering)
# VHH: B1 VHH with T28M, H33A
# notes: FLAG3-His6 tagged
# B36: T0263018B11 G54V (VHH, name in Kabat numbering)
# VHH: B1 VHH with H33A, G55V
# notes: FLAG3-His6 tagged
# B37: T0263018B11 S56G (VHH, name in Kabat numbering)
# VHH: B1 VHH with H33A, S57G
# notes: FLAG3-His6 tagged
# B38: T0263018B11 W100cM (VHH, name in Kabat numbering)
# VHH: B1 VHH with H33A, W107M
# notes: FLAG3-His6 tagged
# B39: T0263018B11 F27M (VHH, name in Kabat numbering)
# VHH: B1 VHH with F27M, H33A
# notes: FLAG3-His6 tagged
# B40: T0263018B11 D58S (VHH, name in Kabat numbering)
# VHH: B1 VHH with H33A, D59S
# notes: FLAG3-His6 tagged
# B41: T0263018B11 F29Y (VHH, name in Kabat numbering)
# VHH: B1 VHH with F29Y, H33A
# notes: FLAG3-His6 tagged
# B42: T0263018B11 Y98L (VHH, name in Kabat numbering)
# VHH: B1 VHH with H33A, Y102L
# notes: FLAG3-His6 tagged
# B43: T0263018B11 Y98W (VHH, name in Kabat numbering)
# VHH: B1 VHH with H33A, Y102W
# notes: FLAG3-His6 tagged
# B44: T0263018B11 G54T (VHH, name in Kabat numbering)
# VHH: B1 VHH with H33A, G55T
# notes: FLAG3-His6 tagged
# B45: T0263018B11 Y32A (VHH, name in Kabat numbering)
# VHH: B1 VHH with Y32A, H33A
# notes: FLAG3-His6 tagged
# B46: T0263018B11 S31G (VHH, name in Kabat numbering)
# VHH: B1 VHH with S31G, H33A
# notes: FLAG3-His6 tagged
# B47: T0263018B11 T28S (VHH, name in Kabat numbering)
# VHH: B1 VHH with T28S, H33A
# notes: FLAG3-His6 tagged
# B48: T0263018B11 D58T (VHH, name in Kabat numbering)
# VHH: B1 VHH with H33A, D59T
# notes: FLAG3-His6 tagged
# B49: T0263018B11 A33N (VHH, name in Kabat numbering)
# VHH: B1 VHH with H33N
# notes: FLAG3-His6 tagged
# B50: T0263018B11 G26A (VHH, name in Kabat numbering)
# VHH: B1 VHH with G26A, H33A
# notes: FLAG3-His6 tagged
# B51: T0263018B11 T57A (VHH, name in Kabat numbering)
# VHH: B1 VHH with H33A, T58A
# notes: FLAG3-His6 tagged
# Biological target: T1, cyno FcRn/b2M (cyno, UniProt Q8SPV9 24-297; Q8SPW0 21-119, biotinylated)
# T1 construct: bought recombinant biotinylated protein (Immunitrack ITF05 or ACRO FCM-C82W5); also called cFcRn; cFcRn/cb2M
# Experiment: SPR pH 6.0;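 note: surface plasmon resonance kinetics at 25 °C, diluted periplasmic extracts injected over immobilized ligand surfaces, 120 s association then 600–3600 s dissociation, running buffer containing 150 mM NaCl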
# Protocol: (§1) All kinetic measurements have been performed on ProteOn XPR36 (BioRad Laboratories, Inc.), MASS-2 (Sierra sensors, Gmbh) or SPR-32 (Bruker Corporation). […] The phytip purified periplasmic extracts were diluted 1:10 in running buffer (CPA+150 mM NaCl+0.005% Tw20 at pH 5.5, pH 6.0 or pH 7.4) and injected over the ligand surfaces (association: 120 s at 45 μL/min; dissociation: 600s-3600 s at 45 μL/min). Experiments were carried out at 25° C.
# T1 sequence (Q8SPV9 24-297 limits assumed, chain 1 of 2): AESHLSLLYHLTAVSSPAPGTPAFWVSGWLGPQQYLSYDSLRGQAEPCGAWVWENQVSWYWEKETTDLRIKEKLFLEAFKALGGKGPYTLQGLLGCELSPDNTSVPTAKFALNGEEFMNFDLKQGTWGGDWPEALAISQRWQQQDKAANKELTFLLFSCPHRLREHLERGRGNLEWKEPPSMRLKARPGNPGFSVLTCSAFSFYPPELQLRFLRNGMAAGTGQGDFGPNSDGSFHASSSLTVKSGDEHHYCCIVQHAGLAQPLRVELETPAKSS
# T1 sequence (Q8SPW0 21-119 limits assumed, chain 2 of 2): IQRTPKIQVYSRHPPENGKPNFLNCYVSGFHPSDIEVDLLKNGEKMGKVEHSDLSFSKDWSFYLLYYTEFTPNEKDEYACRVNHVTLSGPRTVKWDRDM
row,koff,Binder
1,0.00077 s⁻¹,B1
2,0.00055 s⁻¹,B2
3,0.0018 s⁻¹,B3
4,0.00029 s⁻¹,B4
5,0.0084 s⁻¹,B5
6,0.0019 s⁻¹,B6
7,0.00087 s⁻¹,B7
8,0.0011 s⁻¹,B8
9,0.00036 s⁻¹,B9
10,0.0025 s⁻¹,B10
11,0.0019 s⁻¹,B11
12,0.00071 s⁻¹,B12
13,0.0007 s⁻¹,B13
14,0.00069 s⁻¹,B14
15,0.00099 s⁻¹,B15
16,0.0015 s⁻¹,B16
17,0.0026 s⁻¹,B17
18,0.0002 s⁻¹,B18
19,0.00021 s⁻¹,B19
20,0.0019 s⁻¹,B20
21,0.00063 s⁻¹,B21
22,0.0017 s⁻¹,B22

# Biological target: T2, human FcRn/b2M (human, UniProt P61769 21-119, biotinylated)
# T2 construct: bought recombinant biotinylated protein (ACRO FCM-H82W4 or Immunitrack ITF01); also called hFcRn; hFcRn/hb2M
# Experiment: SPR pH 6.0;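 note: surface plasmon resonance kinetics at 25 °C, diluted periplasmic extracts injected over immobilized ligand surfaces, 120 s association then 600–3600 s dissociation, running buffer containing 150 mM NaCl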
# Protocol: as §1
row,koff,Binder
1,0.00076 s⁻¹,B1
2,0.00076 s⁻¹,B2
3,0.0025 s⁻¹,B3
4,0.00062 s⁻¹,B4
5,0.014 s⁻¹,B5
6,0.0026 s⁻¹,B6
7,0.0013 s⁻¹,B8
8,0.006 s⁻¹,B10
9,0.0026 s⁻¹,B11
10,0.00086 s⁻¹,B12
11,0.00098 s⁻¹,B13
12,0.00074 s⁻¹,B14
13,0.0089 s⁻¹,B17
14,0.00075 s⁻¹,B18
15,0.00025 s⁻¹,B19
16,0.0025 s⁻¹,B20
17,0.00073 s⁻¹,B21
18,0.0021 s⁻¹,B22

# Biological target: T1, cyno FcRn/b2M
# Experiment: SPR off-rate; pH 7.4 vs pH 6.0;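 note: surface plasmon resonance with diluted periplasmic extracts flowed over ligand surfaces, 120 s association and 600–3600 s dissociation at 25 °C, running buffer containing 150 mM NaCl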
# Protocol: as §1
row,kd ratio pH 7.4/6.0,Binder
1,54,B23
2,101,B24
3,41,B25
4,61,B26
5,89,B27
6,71,B28
7,39,B29
8,41,B30
9,62,B31
10,34,B32
11,41,B33
12,40,B34
13,64,B35
14,31,B36
15,54,B37
16,59,B38
17,69,B39
18,12,B40
19,45,B41
20,36,B42
21,45,B43
22,35,B44
23,70,B45
24,58,B46
25,85,B47
26,10,B48
27,49,B49
28,116,B50
29,36,B51

# Biological target: T1, cyno FcRn/b2M
# Experiment: SPR pH 7.4;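 note: surface plasmon resonance kinetics, periplasmic extracts diluted 1:10 flowed over immobilized target at 25 °C, 120 s association then 600–3600 s dissociation, buffer with 150 mM NaCl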
# Protocol: as §1
row,koff,Binder
1,0.037 s⁻¹,B1
2,0.024 s⁻¹,B2
3,0.083 s⁻¹,B3
4,0.015 s⁻¹,B4
5,0.21 s⁻¹,B5
6,0.1 s⁻¹,B6
7,0.054 s⁻¹,B7
8,0.04 s⁻¹,B8
9,0.031 s⁻¹,B9
10,0.18 s⁻¹,B10
11,0.026 s⁻¹,B12
12,0.027 s⁻¹,B13
13,0.022 s⁻¹,B14
14,0.045 s⁻¹,B15
15,0.083 s⁻¹,B16
16,0.036 s⁻¹,B17
17,0.028 s⁻¹,B18
18,0.0099 s⁻¹,B19
19,0.12 s⁻¹,B20
20,0.026 s⁻¹,B21
21,0.088 s⁻¹,B22

# Biological target: T2, human FcRn/b2M
# Experiment: SPR pH 7.4;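 note: surface plasmon resonance kinetics, periplasmic extracts diluted 1:10 flowed over immobilized target at 25 °C, 120 s association then 600–3600 s dissociation, buffer with 150 mM NaCl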
# Protocol: as §1
row,koff,Binder
1,0.041 s⁻¹,B7
2,0.045 s⁻¹,B9
3,0.041 s⁻¹,B15
